Some results are limits rather than exact numbers.

We go through four molecules from patent EP0504914A2 (E.R. SQUIBB & SONS, INC., dated 1992).

Experiment [1] addresses T1, mouse trkB tyrosine protein kinase gp145^trkB (mouse, UniProt P15209 32-821). In words: cell-based or functional assay.
Experiment [2] has as its target T2, human trk proto-oncogene product gp140^trk (human, UniProt P04629 33-796). In words: cell-based or functional assay.
Experiment [3] has as its target T3, porcine trkC product gp145^trkC (porcine).
T3 construct: Expressed from pFL20 in NIH3T3 cells (R4-31); also called trkC receptor
The experiment can be described thus: Scatchard analysis, [125I]-NT-3 on R4-31 cells at 4°C, high affinity sites.

The target in experiment [4] is T3, porcine trkC product gp145^trkC. In words: Scatchard analysis, [125I]-NT-3 on R4-31 cells at 4°C, low affinity sites.
For experiment [5], the target named is T1, mouse trkB tyrosine protein kinase …. The experiment can be described thus: cell-based or functional assay. The source holds these as a separate data set.
In experiment [6] the target is T2, human trk proto-oncogene product …. The experiment can be described thus: cell-based or functional assay. This is another data set of the same source.
Experiment [7] addresses T4, endogenous trk proto-oncogene product of rat PC12 cells (rat, UniProt P35739 33-799).
T4 construct: whole, on cells; also called PC12 endogenous trk proto-oncogene product; gp140^trk of PC12 cells
The experiment can be described thus: Scatchard analysis, [125I]-βNGF on PC12 cells at 4°C, high affinity receptors.

The target in experiment [8] is T2, human trk proto-oncogene product …. In words: Scatchard analysis, [125I]-βNGF on Sf9 cells infected with pAcS2, low affinity receptors.
Experiment [9] has the same target. The experiment can be described thus: Scatchard analysis, [125I]-βNGF on E25-427 cells at 4°C, high affinity receptors.
For experiment [10] the target is unchanged. The experiment can be described thus: Scatchard analysis, [125I]-βNGF on E25-427 cells at 4°C, low affinity receptors.
Experiment [11] shares this target. In words: Scatchard analysis, [125I]-βNGF on Sf9 cells infected with pAcS2, high affinity receptors.
The target of experiment [12] is T5, rat low affinity NGF receptor gp80^LNGFR (rat, UniProt P07174 30-425).
T5 construct: whole, on cells
T5 sequence (looked up): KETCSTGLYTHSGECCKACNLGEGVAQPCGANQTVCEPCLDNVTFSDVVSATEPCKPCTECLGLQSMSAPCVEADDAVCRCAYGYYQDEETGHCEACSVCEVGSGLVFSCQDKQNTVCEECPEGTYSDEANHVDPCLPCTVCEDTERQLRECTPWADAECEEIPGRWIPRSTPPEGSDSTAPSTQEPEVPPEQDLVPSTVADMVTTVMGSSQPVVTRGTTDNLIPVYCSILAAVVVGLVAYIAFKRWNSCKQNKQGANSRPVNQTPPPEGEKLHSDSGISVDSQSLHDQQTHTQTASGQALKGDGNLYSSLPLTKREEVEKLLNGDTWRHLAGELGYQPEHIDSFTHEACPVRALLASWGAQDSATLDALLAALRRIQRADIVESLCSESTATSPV
The experiment can be described thus: Scatchard analysis, [125I]-βNGF on PC12 cells at 4°C, low affinity receptors.

Experiment [13] deals with T2, human trk proto-oncogene product …. In words: cell-based or functional assay. The source holds these as a separate data set.
The target is the same in experiment [14]. In words: Scatchard analysis, [125I]-βNGF on E25-48 cells at 4°C, low affinity receptors.
Experiment [15] has the same target. In words: Scatchard analysis, [125I]-βNGF on E25-48 cells at 4°C, high affinity receptors.
Experiment [16] deals with T1, mouse trkB tyrosine protein kinase …. The experiment can be described thus: [125I]-βNGF binding to cells at 4°C.
Experiment [17] concerns the target mutant mouse trkB receptor gp145^trkB/S345 (mouse, UniProt P15209 32-821). In words: cell-based or functional assay.
The target of experiment [18] is T2, human trk proto-oncogene product …. The experiment can be described thus: competition with [125I]-NGF on E25-48 cells.

T1 sequence (P15209 32-821): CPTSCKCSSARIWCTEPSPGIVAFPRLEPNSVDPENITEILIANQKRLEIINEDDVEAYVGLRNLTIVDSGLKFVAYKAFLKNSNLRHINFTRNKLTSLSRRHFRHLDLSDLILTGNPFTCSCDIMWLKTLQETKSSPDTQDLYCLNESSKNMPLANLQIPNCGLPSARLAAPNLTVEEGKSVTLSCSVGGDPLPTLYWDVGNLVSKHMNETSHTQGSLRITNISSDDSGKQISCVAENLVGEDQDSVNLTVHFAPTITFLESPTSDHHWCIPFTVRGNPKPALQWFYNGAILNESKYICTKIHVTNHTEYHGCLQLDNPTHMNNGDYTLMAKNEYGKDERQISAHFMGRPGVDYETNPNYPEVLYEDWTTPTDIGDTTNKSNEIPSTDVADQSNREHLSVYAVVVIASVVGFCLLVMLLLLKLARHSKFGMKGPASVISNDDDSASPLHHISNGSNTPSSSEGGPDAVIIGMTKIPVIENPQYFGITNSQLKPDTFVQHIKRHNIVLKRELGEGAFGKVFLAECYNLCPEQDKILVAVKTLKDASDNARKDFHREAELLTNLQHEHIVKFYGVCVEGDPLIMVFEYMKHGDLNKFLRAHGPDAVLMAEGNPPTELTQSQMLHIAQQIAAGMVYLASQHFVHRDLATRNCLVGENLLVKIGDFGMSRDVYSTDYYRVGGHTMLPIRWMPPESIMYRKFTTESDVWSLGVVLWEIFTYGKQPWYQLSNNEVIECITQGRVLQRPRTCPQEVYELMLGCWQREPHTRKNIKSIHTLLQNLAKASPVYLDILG
T2 sequence (P04629 33-796): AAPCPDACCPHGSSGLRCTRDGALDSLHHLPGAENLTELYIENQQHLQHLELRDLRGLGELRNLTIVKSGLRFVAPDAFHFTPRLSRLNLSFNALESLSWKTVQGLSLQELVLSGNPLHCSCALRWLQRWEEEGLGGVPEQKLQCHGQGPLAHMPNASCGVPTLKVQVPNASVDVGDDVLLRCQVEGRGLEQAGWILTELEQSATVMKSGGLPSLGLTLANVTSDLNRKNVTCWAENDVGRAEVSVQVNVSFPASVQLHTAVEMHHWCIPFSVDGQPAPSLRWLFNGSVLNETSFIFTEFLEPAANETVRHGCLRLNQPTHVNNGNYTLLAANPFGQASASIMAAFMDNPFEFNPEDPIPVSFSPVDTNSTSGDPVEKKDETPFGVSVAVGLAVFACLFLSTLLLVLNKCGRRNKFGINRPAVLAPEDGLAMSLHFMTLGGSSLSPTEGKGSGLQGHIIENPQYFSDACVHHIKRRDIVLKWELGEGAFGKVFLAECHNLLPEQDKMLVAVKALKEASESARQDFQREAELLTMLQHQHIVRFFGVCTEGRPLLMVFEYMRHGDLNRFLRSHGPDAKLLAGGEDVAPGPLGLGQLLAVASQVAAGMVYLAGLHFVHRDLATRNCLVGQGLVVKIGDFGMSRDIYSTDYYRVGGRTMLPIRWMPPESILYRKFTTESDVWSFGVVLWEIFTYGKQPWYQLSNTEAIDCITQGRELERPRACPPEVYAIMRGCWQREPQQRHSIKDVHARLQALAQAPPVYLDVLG
T4 sequence (P35739 33-799): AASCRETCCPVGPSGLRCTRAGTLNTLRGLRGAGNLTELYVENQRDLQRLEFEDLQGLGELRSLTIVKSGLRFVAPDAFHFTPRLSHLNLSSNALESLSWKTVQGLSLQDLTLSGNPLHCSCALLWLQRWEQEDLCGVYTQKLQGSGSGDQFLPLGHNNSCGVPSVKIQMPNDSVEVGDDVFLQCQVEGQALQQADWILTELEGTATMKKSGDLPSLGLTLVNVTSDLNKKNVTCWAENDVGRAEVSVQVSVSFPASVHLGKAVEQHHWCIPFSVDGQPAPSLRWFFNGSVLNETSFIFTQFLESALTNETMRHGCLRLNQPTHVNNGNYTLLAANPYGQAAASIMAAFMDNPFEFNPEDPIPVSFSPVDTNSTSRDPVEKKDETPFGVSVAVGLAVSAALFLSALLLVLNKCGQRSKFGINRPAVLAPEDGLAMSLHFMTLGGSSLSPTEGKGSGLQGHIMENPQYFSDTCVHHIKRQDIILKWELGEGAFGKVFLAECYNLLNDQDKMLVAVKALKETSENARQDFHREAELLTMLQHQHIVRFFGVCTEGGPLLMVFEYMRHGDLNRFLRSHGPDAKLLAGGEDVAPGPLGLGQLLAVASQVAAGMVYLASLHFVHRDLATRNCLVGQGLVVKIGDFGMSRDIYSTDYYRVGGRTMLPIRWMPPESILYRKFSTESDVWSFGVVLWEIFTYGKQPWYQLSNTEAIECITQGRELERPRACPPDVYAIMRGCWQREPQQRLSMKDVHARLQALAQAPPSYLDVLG
mutant mouse trkB receptor gp145^trkB/S345, sequence (P15209 other isoform, or with tags, fused parts or gaps mutant): as the sequence (P15209 32-821) above, with C314S counted along it

B1: human neurotrophin-3 (NT-3) (ligand, UniProt P20783 139-257, looked up)
chain: YAEHKSHRGEYSVCDSESLWVTDKSSAIDIRGHQVTVLGEIKTGNSPVKQYFYETRCKEARPVKNGCRGIDDKHWNSQCKTSQTYVRALTSENNKLVGWRWIRIDTSCVCALSRKIGRT
modifications: 125I (Bolton-Hunter) where used as tracer
notes: mature; also called [125I]-labeled NT-3
Consider B1, for which, in [1], the “transformation efficiency with pFRK44, against BDNF” value came out at 500 fold lower. For the same molecule, the “efficiency in transformation assays with pDM69, against NGF” value in experiment [2] is 200 fold less efficient than NGF. Further, the Kd (in general, the free concentration of one partner at which half of the binding sites on the other are occupied at equilibrium, for simple one-to-one binding) turned out to be 0.026 nM in experiment [3] and 4 nM in experiment [4]. The “transforming activity of neurotrophic factor DNA in the presence of trkB DNA” value (“transforming activity … of trkB DNA” below) in experiment [5] was 100 ffu per µg of DNA. In addition, the “transforming activity of neurotrophic factor DNA in the presence of trk DNA” value (“transforming activity … of trk DNA” for short) in [6] was 300 ffu per µg of DNA.

B2: murine 2.5S NGF (βNGF) (ligand, UniProt P01139 122-241, looked up)
chain: SSTHPVFHMGEFSVCDSVSVWVGDKTTATDIKGKEVTVLAEVNINNSVFRQYFFETKCRASNPVESGCRGIDSKHWNSYCTTTHTFVKALTTDEKQAAWRFIRIDTACVCVLSRKATRRG
modifications: 125I label where used as tracer
notes: mature; The background says that βNGF exists as a 26,000 d homodimer; also called [125I]-labeled βNGF; [125I]-NGF
As for B2, the Kd in experiment [7] stood at 0.3 nM; in experiment [8] it was 13.7 nM; in experiment [9] it was 0.12 nM; in experiment [10] it was 7 nM; in [11], 0.42 nM; in experiment [12], 33.2 nM. In addition, the Kd in [14] was 2.4 nM; in experiment [15], 0.09 nM. For the same molecule, the “NGF stimulation of agar colonies, 10^3 E25-48 cells” value in experiment [13] was 9 fold. For the same molecule, the “NGF stimulation of agar colonies, 10^4 E25-48 cells” value in experiment [13] turned out to be 7 fold. Further, the “transforming activity … of trkB DNA” value in experiment [5] was < 1 ffu per µg of DNA. For the same molecule, the “transforming activity … of trk DNA” value in experiment [6] was 20000 ffu per µg of DNA. Further, the binding result in experiment [16] is “no binding (tested: 1 nM)”.

B3: Xenopus laevis neurotrophin-4 (XNT-4) (ligand, UniProt P24727 114-236, looked up)
chain: ASGSDSVSLSRRGELSVCDSVNVWVTDKRTAVDDRGKIVTVMSEIQTLTGPLKQYFFETKCNPSGSTTRGCRGVDKKQWISECKAKQSYVRALTIDANKLVGWRWIRIDTACVCTLLSRTGRT
Regarding B3, the “transforming activity with gp145^trkB, against BDNF” value in experiment [1] came out at 5 fold lower than BDNF.

B4: human brain-derived neurotrophic factor (BDNF) (ligand, UniProt P23560 129-247, looked up)
chain: HSDPARRGELSVCDSISEWVTAADKKTAVDMSGGTVTVLEKVPVSKGQLKQYFYETKCNPMGYTKEGCRGIDKRHWNSQCRTTQSYVRALTMDSKKRIGWRFIRIDTSCVCTLTIKRGR
modifications: 125I (Bolton-Hunter) where used as tracer in Example 5
notes: mature; also called [125I]-BDNF
With B4, the “efficiency in mediating the response to BDNF, against wild type gp145^trkB” value in experiment [17] was ~10 fold less efficient than wild type. In [18], the binding result is given as “no binding (tested: 500 ng/ml)”. Moreover, the “transforming activity … of trkB DNA” value in [5] is 40000 ffu per µg of DNA. For the same molecule, the “transforming activity … of trk DNA” value in experiment [6] is < 1 ffu per µg of DNA.
